# Source: US20050208610
# T1: peptide CR002 (amino acids 41-60)
# T1 chain: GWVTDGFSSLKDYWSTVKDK
# T2: peptide CR006 (amino acids 49-62)
# T2 chain: SLKDYWSTVKDKFS
# Columns and labels:
# [1] = molecular target: T1, peptide CR002 (amino acids 41-60)
# [2] = molecular target: peptide CR003
# [3] = molecular target: peptide CR004
# [4] = molecular target: peptide CR005
# [5] = molecular target: T2, peptide CR006 (amino acids 49-62)
protein,measurement,setting,value
TF:VIIa complex (protein) chain 1: SGTTNTVAAYNLTWKSTNFKTILEWEPKPVNQVYTVQISTKSGDWKSKCFYTTDTECDLTDEIVKDVKQTYLARVFSYPAGNVESTGSAGEPLYENSPEFTPYLETNLGQPTIQSFEQVGTKVNVTVEDERTLVRRNNTFLSLRDVFGKDLIYTLYYWKSSSSGKKTAKTNTNEFLIDVDKGENYCFSVQAVIPSRTVNRKSTDSPVECMGQEKGEFREIFYIIGAVVFVVIILVIILAISLHKCRKAGVGQSWKENSPLNVS chain 2: ANAFLEELRPGSLERECKEEQCSFEEAREIFKDAERTKLFWISYSDGDQCASSPCQNGGSCKDQLQSYICFCLPAFEGRNCETHKDDQLICVNENGGCEQYCSDHTGTKRSCRCHEGYSLLADGVSCTPTVEYPCGKIPILEKRNASKPQGRIVGGKVCPKGECPWQVLLLVNGAQLCGGTLINTIWVVSAAHCFDKIKNWRNLIAVLGEHDLSEHDGDEQSRRVAQVIIPSTYVPGTTNHDIALLRLHQPVVLTDHVVPLCLPERTFSERTLAFVRFSLVSGWGQLLDRGATALELMVLNVPRLMTQDCLQQSRKVGDSPNITEYMFCAGYSDGSKDSCKGDSGGPHATHYRGTWYLTGIVSWGQGCATVGHFGVYTRVSQYIEWLQKLMRSEPRPGVLLRAPFP,2-stage chromogenic substrate assay that determines TF:VIIa-mediated activation of factor X,[1],"retained the ability to inhibit TF:VIIa mediated activation of factor X, but at much lower potency than the apolipoprotein CIII fragment"
same,2-stage chromogenic substrate assay that determines TF:VIIa-mediated activation of factor X,[2],showed no inhibitory activity in the chromogenic substrate assay
same,2-stage chromogenic substrate assay that determines TF:VIIa-mediated activation of factor X,[3],showed no inhibitory activity in the chromogenic substrate assay
same,2-stage chromogenic substrate assay that determines TF:VIIa-mediated activation of factor X,[4],showed no inhibitory activity in the chromogenic substrate assay
same,2-stage chromogenic substrate assay that determines TF:VIIa-mediated activation of factor X,[5],Progressive loss of potency was shown as additional N-terminal residues were removed (CR006; amino acids 49-62)
